Results taken from patent publication US20030092624A1 (YISSUM RESEARCH DEVELOPMENT COMPANY OF THE HEBREW …, published 2003).

B1: native SP1 protein purified from aspen plants (116 kDa oligomer / 12.4 kDa monomer) (other)
chain: MATRTPKLVKHTLLTRFKDEITREQIDNYINDYTNLLDLIPSMKSFNWGTDLGMESAELNRGYTHAFESTFESKSGLQEYLDSAALAAFAEGFLPTLSQRLVIDYFLY
notes: Homo-oligomer; On Western blots the protein was separated by SDS-PAGE first; also called purified SP1; plant SP1 protein

Assays:
[1] = molecular target: T1, Citrate Synthase (CS), Roche Diagnostics (UniProt P00889 28-464); assay: cell-based or functional assay
T1 sequence (looked up): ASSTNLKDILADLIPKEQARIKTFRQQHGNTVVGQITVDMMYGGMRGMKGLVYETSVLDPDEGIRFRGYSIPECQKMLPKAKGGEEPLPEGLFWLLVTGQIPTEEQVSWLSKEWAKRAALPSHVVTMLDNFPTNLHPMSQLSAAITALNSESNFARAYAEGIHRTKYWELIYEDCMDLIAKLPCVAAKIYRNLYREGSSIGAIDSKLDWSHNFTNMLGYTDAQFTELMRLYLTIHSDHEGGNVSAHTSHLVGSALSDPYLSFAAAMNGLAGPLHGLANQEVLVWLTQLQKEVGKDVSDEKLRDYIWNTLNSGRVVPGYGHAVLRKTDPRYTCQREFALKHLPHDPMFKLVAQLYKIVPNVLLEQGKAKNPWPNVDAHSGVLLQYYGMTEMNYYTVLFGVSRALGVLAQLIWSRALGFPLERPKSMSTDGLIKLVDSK

[2] = molecular target: Horseradish Peroxidase (HRP), Sigma (horseradish) (UniProt P00433); assay: cell-based or functional assay
[3] = molecular target: alpha-amylase (Sigma, A 6380); assay: cell-based or functional assay
[4] = molecular target: superoxide dismutase (SOD), cosmetic grade ('dismutin', Pentapharm Ltd.); assay: cell-based or functional assay
[5] = molecular target: T2, Horseradish Peroxidase (HRP), Sigma (horseradish, UniProt P00433 31-338); assay: cell-based or functional assay
T2 sequence (looked up): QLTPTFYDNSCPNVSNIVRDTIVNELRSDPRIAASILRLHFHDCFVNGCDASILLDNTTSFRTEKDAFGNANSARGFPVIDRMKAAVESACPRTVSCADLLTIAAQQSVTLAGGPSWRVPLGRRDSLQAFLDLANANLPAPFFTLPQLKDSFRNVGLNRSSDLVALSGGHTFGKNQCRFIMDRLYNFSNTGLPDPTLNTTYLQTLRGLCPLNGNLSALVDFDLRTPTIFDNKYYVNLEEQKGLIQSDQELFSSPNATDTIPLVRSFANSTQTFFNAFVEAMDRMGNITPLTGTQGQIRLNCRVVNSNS

[6] = molecular target: the molecule itself; assay: SDS-tricine PAGE; self-association of SP1 monomers

| Molecule | remaining CS enzymatic activity at 43° C. after 40 minutes, CS:CBD-SP1 monomeric molar ratio of 1:20 [1] [%] | remaining CS enzymatic activity at 43° C. after 40 minutes, CS:CBD-SP1 ratio of 1:5 [1] [%] | HRP activity rescued after room temperature inactivation [2] [%] | alpha-amylase activity after 2 hours in 2 M CaCl2 [3] [%] | increase in alpha-amylase activity 2 hours after SP1 addition [3] [%] | remaining alpha-amylase activity after one-week incubation at room temperature [3] [%] | SOD activity compared to SP1 untreated SOD [4] [%] | protection of CS activity against heat inactivation at 43° C., CS:SP1 ratio of 1:5, 40 minutes [1] [%] | remaining CS enzymatic activity at 43° C., CS:SP1 ratio of 1:50, 15 minutes [1] [%] | remaining CS enzymatic activity at 43° C., CS:SP1 ratio of 1:50, 40 minutes [1] [%] | protection of HRP activity at 55° C. compared with BSA at 1:300 [5] [fold] | protection of HRP activity at 55° C., HRP:SP1 molar ratio of 1:300, 60 minutes [5] [%] | remaining HRP activity at 55° C., HRP:SP1 molar ratio of 1:300, 2 hours [5] [%] | binding result [6] |
| --- | --- | --- | --- | --- | --- | --- | --- | --- | --- | --- | --- | --- | --- | --- |
| recombinant CBD-SP1 fusion protein (32.4 kDa monomer) expressed in E. coli from pET-CBD-180-SP1 | 73 | 33 |  |  |  |  |  |  |  |  |  |  |  |  |
| B1 |  |  | 10 | 50 | 60 | > 40 | 60 | 22 | ~100 | ≥ 93 | ~3 | > 60 | 53 | binds |
